Measured values published in the RNAGym collection of RNA variant scans (doi:10.7554/elife.80360).

B1: Hairpin Ribozyme (parent)
chain: GUCCUCUUUCACGUGCGCGUGAAAGAGAGAAGUGAACCAGAGAAACACACGUUGUGGUAUAUUACCUGGUA

Variants of: B1
Experiment: self-cleavage, relative activity (ratio to wild type); higher = more cleavage; co-transcriptional

| Variant | self-cleavage |
| --- | --- |
| GUCCUCUUUCACGUGCGCGCGAAAGAGAGCAGUGAACCAGAGAAACACACGUUGUGGUAUAUUACCUGGUA [U20C A30C] | 0.217 |
| GUCCUCUUUCACGUGCGCGCGAAAGAGAGAAGUGAACCAGAGAAACACACGUUGUGGUAUAUUUCCUGGUA [U20C A64U] | 0.152 |
| GUCCUCUUUCACGUGCGCGCGAAAGAGAGAAGUGAACCAGAGAAAGACACGUUGUGGUAUAUUACCUGGUA [U20C C46G] | 0.117 |
| GUCCUCUUUCACGUGCGCGCGAAAGAGUGAAGUGAACCAGAGAAACACACGUUGUGGUAUAUUACCUGGUA [U20C A28U] | 0.393 |
| GUCCUCUUUCACGUGCGCGCGAAAGAGCGAAGUGAACCAGAGAAACACACGUUGUGGUAUAUUACCUGGUA [U20C A28C] | 0.374 |
| GUCCUCUUUCACGUGCGCGCGAAAGAGGGAAGUGAACCAGAGAAACACACGUUGUGGUAUAUUACCUGGUA [U20C A28G] | 1.17 |
| GUCCUCUUUCACGUGCGCGCGAAAGAGAGAAGUGAACCAGAGAAACACACGUUGUGGUAUAUUACGUGGUA [U20C C66G] | 0.152 |
| GUCCUCUUUCACGUGCGCGAGAAAGAGAGAAGUGAACCAGAGAAACACACGUUGUGGUAUAUUACCUGGCA [U20A U70C] | 0.663 |
| GUCCUCUUUCACGUGCGCGCGAAAGAGAGAAGUGAACCAGACAAACACACGUUGUGGUAUAUUACCUGGUA [U20C G42C] | 0.313 |
| GUCCUCUUUCACGUGCGCGCGAAAGAGAGACGUGAACCAGAGAAACACACGUUGUGGUAUAUUACCUGGUA [U20C A31C] | 0.0231 |
| GUCCUCUUUCACGUGCGCGCGAAAGAGAGAGGUGAACCAGAGAAACACACGUUGUGGUAUAUUACCUGGUA [U20C A31G] | 0.469 |
| GUCCUCUUUCACGUGCGCGCGAAAGAGAGAAGUGAACCUGAGAAACACACGUUGUGGUAUAUUACCUGGUA [U20C A39U] | 0.315 |
| GUCCUCUUUCACGUGCGCGCGAAAGAGAGAAGUGAACCGGAGAAACACACGUUGUGGUAUAUUACCUGGUA [U20C A39G] | 0.311 |
| GUCCUCUUUCACGUGCGCGCGAAAGAGAGAAGUGAACCAGAGAAGCACACGUUGUGGUAUAUUACCUGGUA [U20C A45G] | 0.165 |
| GUCCUCUUUCACGUGCGCGCGAAAGAGAGAAGUGAACCAGAGAAACACACGUUGUGGUAUAUUAACUGGUA [U20C C65A] | 1 |
| GUCCUCUUUCACGUGCGCGCGAAAGAGAGAAGUGAACCAGAGAAACACACGUUGUGGUAUAUUAUCUGGUA [U20C C65U] | 0.284 |
| GUCCUCUUUCACGUGCGCGCGAAAGAGAGAACUGAACCAGAGAAACACACGUUGUGGUAUAUUACCUGGUA [U20C G32C] | 0.0574 |
| GUCCUCUUUCACGUGCGCGAGAAAGAGAGAAGUGAACCAGAGAAACACACGUUGUGGUAUAUCACCUGGUA [U20A U63C] | 0.147 |
| GUCCUCUUUCACGUGCGCGCGAAAGGGAGAAGUGAACCAGAGAAACACACGUUGUGGUAUAUUACCUGGUA [U20C A26G] | 1.06 |

| Variant | self-cleavage |
| --- | --- |
| GUCCUCUUUCACGUGCGCGCGAAAGAGAGAAGUGGACCAGAGAAACACACGUUGUGGUAUAUUACCUGGUA [U20C A35G] | 0.71 |
| GUCCUCUUUCACGUGCGCGCGAAAGAGAGAAGUGAACCAGAGAAACACACGUUCUGGUAUAUUACCUGGUA [U20C G54C] | 0.373 |
| GUCCUCUUUCACGUGCGCGCGUAAGAGAGAAGUGAACCAGAGAAACACACGUUGUGGUAUAUUACCUGGUA [U20C A22U] | 0.602 |
| GUCCUCUUUCACGUGCGCGCGAAAGAGAGAAGUGAGCCAGAGAAACACACGUUGUGGUAUAUUACCUGGUA [U20C A36G] | 1 |
| GUCCUCUUUCACGUGCGCGCGAAAGAGACAAGUGAACCAGAGAAACACACGUUGUGGUAUAUUACCUGGUA [U20C G29C] | 0.143 |
| GUCCUCUUUCACGUGCGCGCGAAAGAGAGAAGUGAACCAAAGAAACACACGUUGUGGUAUAUUACCUGGUA [U20C G40A] | 0.314 |
| GUCCUCUUUCACGUGCGCGCGAAAGAGAGAAGUGAACCAUAGAAACACACGUUGUGGUAUAUUACCUGGUA [U20C G40U] | 0.19 |
| GUCCUCUUUCACGUGCGCGCGAAUGAGAGAAGUGAACCAGAGAAACACACGUUGUGGUAUAUUACCUGGUA [U20C A24U] | 0.503 |
| GUCCUCUUUCACGUGCGCGCGAGAGAGAGAAGUGAACCAGAGAAACACACGUUGUGGUAUAUUACCUGGUA [U20C A23G] | 1 |
| GUCCUCUUUCACGUGCGCGCGAAAGAGAGAAGUGAACCAGAGUAACACACGUUGUGGUAUAUUACCUGGUA [U20C A43U] | 0.125 |
| GUCCUCUUUCACGUGCGCGCGAAAGAGAGAAGUGAACCAGAGAAACACCCGUUGUGGUAUAUUACCUGGUA [U20C A49C] | 0.172 |
| GUCCUCUUUCACGUGCGCGAGAAAGAGAGAAGUGAACCAGAGAAACACACGUUGUGGUAUAUUACCAGGUA [U20A U67A] | 0.217 |
| GUCCUCUUUCACGUGCGCGCAAAAGAGAGAAGUGAACCAGAGAAACACACGUUGUGGUAUAUUACCUGGUA [U20C G21A] | 0.686 |
| GUCCUCUUUCACGUGCGCGCUAAAGAGAGAAGUGAACCAGAGAAACACACGUUGUGGUAUAUUACCUGGUA [U20C G21U] | 0.652 |
| GUCCUCUUUCACGUGCGCGCGAAAGAGAGAAGUGAACAAGAGAAACACACGUUGUGGUAUAUUACCUGGUA [U20C C38A] | 0.152 |
| GUCCUCUUUCACGUGCGCGCGAAAGAGAGAAGUGAACCAGAGAAACACAGGUUGUGGUAUAUUACCUGGUA [U20C C50G] | 0.262 |
| GUCCUCUUUCACGUGCGCGCGAAAGAGAGAAGUGAACCAGAGAAACACAUGUUGUGGUAUAUUACCUGGUA [U20C C50U] | 0.476 |
| GUCCUCUUUCACGUGCGCGCGAAAGAGAGAAGUGAACCAGAGAAACACACGUUGUGGUAUAUUACCUGGUU [U20C A71U] | 0.79 |
| GUCCUCUUUCACGUGCGCGCGAAAGAGAGAAGUGAACCAGAGAAACACACGUUGUGGUAUAUUACCUGGUC [U20C A71C] | 1.28 |
